Columns and labels:
[1] = tested on: P. haemolytica glycoprotease; assay: Cleavage of cell surface antigens of surface-125I-iodinated KG1a cells, immunoprecipitation and SDS-PAGE; format: cell-based
Excerpt: In our previous work, we have concentrated on the cleavage of human erythrocyte glycophorin A by the P. haemolytica glycoprotease Udoh et al. 1986. Univ. of Guelph; Abdullah et al. 1988. Proc. Canad. Fed. Biol. Socs.; Abdullah et al. 1990. Biochem. Soc. Trans. This substrate is well-characterized erythrocyte surface O-sialoglycoprotein and is readily available for biochemical analysis. However, it is clear that the physiological targets of this enzyme are not erthrocyte antigens but are probably O-sialoglycoproteins on the surfaces of leukocytes or endothelial cells. SDS-PAGE analysis of immunoprecipitations performed with specific monoclonal antibodies on lysates of surface-^125 I-iodinated KG1a cells, a primitive myeloid/T-lymphois stem cell line Koeffler et al. 1977. Science 200, have shown that the O-sialoglycoprotein cell surface antigens CD34 Civin et al. 1989. Leucocyte Typing IV, Oxford Univ. Press. CD43/leucosialin Killeen et al. 1987. EMBO J.; Pallant et al. 1989. PNAS, CD44/lyaluronic acid receptor Stamenkovic et al. 1989. Cell; Aruffo et al. 1990. Cell and CD45/leucocyte common antigen Thomas et al. 1989. Annu. REv. Immunol.; Pulido et al. 1989. J. Immunol. are all cleaved by the glycoprotease. Although the glycoprotease-sensitive structures contain some N-linked glycans they are all extensively glycosylated with O-linked carbohydrates. However, the N-linked glycoproteins CD18/11^a, 11^b, 11^c /leukocyte integrins Arnaout et al. 1990. Blood, CD71/transferrin receptor Shae et al. 1986. Cell, HLA class I Owen et al. 1980. J. Biol. Chem., and 8A3 antigens Sutherland et al. Blood (in press, Jan. 1991), which lack O-sialo-residues, were resistant to the action of the enzyme.

[2] = tested on: P. haemolytica glycoprotease; assay: Removal of CD34 epitopes on KG1/KG1a cells (fluorescence microscopy, flow cytometry, western blotting); format: cell-based
Excerpt: Blood; Katz et al. 1985. Leuk. Res. which detects a sialic acid-dependent epitope on this glycoprotein Watt et al. 1987. Leukaemia; and Sutherland et al. 1988. Leukaemia. We have assessed the ability of this enzyme to remove CD34 epitopes recognized by all seven CD34 antibodies designated by the 4th Leucocyte Antigen Workshop Civin et al. 1989. Leukocyte Typing IV, Oxford Univ. Press. We have shown by fluorescence microscopy, quantitative flow cytometry and western blotting, that sialic acid-dependent epitopes, recognized by antibodies B1.3C5, MY10 Civin et al. 1984. J. Immunol. and 12.8 Andrews et la. 1986. […] Leukaemia and 188.24 Sutherland et al. Leukaemia. In contrast, the sialic acid-independent epitopes by 115.2 Andrew et al. 1986. Blood and TUK3 Civin et al. 1989. Leucocyte Typing IV, Oxford Univ. […] As previously for the cleavage of glycophorin, the enzyme requires the presence of sialyted residues on its substrate and the prior treatment of KGla cells with neuraminidase reduced the ability of the glycoprotease to cleave the ICH3 and 188.24 epitopes Sutherland et al. 1990. Blood (in press). The differential sensitivity of certain CD34 epitopes to cleavage with either neuraminidase and/or glycoprotease establishes 3 classes of epitopes:(Class 1) those like MY 10,B1.3C5 and 12.8 which are removed both by neuraminidase and by the glycoprotease;(Class II) those like ICH3 and 188.24 which are removed only by the glycoprotease; (Class III) those like TUK3 and 115.2

[3] = molecular target: P. haemolytica A1 protease (Mannheimia haemolytica, UniProt P36175); format: biochemical; conditions: FIG. 9; SDS-PAGE autoradiography

B1: CD34: O-sialoglycoprotein cell surface antigen, primitive bone marrow stem cell antigen (protein, UniProt P28906 32-385, looked up)
Hematopoietic progenitor cell …: SLDNNGTATPELPTQGTFSNVSTNVSYQETTTPSTLGSTSLHPVSQHGNEATTNITETTVKFTSTSVITSVYGNTNSSVQSQTSVISTVFTTPANVSTPETTLKPSLSPGNVSDLSTTSTSLATSPTKPYTSSSPILSDIKAEIKCSGIREVKLTQGICLEQNKTSSCAEFKKDRGEGLARVLCGEEQADADAGAQVCSLLLAQSEVRPQCLLLVLANRTEISSKLQLMKKHQSDLKKLGILDFTEQDVASHQSYSQKTLIALVTSGALLAVLGITGYFLMNRRSWSPTGERLGEDPYYTENGGGQGYSSGPGTSPEAQGKASVNRGAQENGTGQATSRNGHSARQHVVADTEL
[1]
  Cleavage of cell surface antigen by the glycoprotease: cleaved
[2]
  Removal of sialic acid-dependent epitopes recognized by antibodies B1.3C5, MY10 and 12.8: totally removed
  Removal of sialic acid-independent epitopes recognized by ICH3 and 188.24: totally removed
  Sensitivity of sialic acid-independent epitopes recognized by 115.2 and TUK3: totally resistant
[2]; KG1 cells
  Cleavage of CD34, loss of reactivity with anti-CD34 monoclonal antibody B1.3C5: readily cleaved

B2: CD43/leucosialin: O-sialoglycoprotein cell surface antigen, leukosialin/sialophorin (protein)
chain: STTAVQTPTSGEPLVSTSEPLSSKMYTTSITSDPKADSTGDQTSALPPSTSINEGSPLWTSIGASTGSPLPEPTTYQEVSIKMSSVPQETPHATSHPAVPITANSLGSHTVTGGTITTNSPETSSRTSGAPVTTAASSLETSRGTSGPPLTMATVSLETSKGTSGPPVTMATDSLETSTGTTGPPVTMTTGSLEPSSGASGPQVSSVKLSTMMSPTTSTNASTVPFRNPDENSRGMLPVAVLVALLAVIVLVALLLLWRRRQKRRTGALVLSRGGKRNGVVDAWAGPAQVPEEGAVTVTVGGSGGDKGSGFPDGEGSSRRPTLTTFFGRRKSRQGSLAMEELKSGSGPSLKGEEEPLVASEDGAVDAPAPDEPEGGDGAAP
modifications: O-sialoglycosylated
[1]
  Cleavage of cell surface antigen by the glycoprotease: cleaved

B3: glycophorin A: major sialoglycopeptide of the human erythrocyte membrane (protein, UniProt P02724 20-150, looked up)
Glycophorin-A: LSTTEVAMHTSTSSSVTKSYISSQTNDTHKRDTYAATPRAHEVSEISVRTVYPPEEETGERVQLAHHFSEPEITLIIFGVMAGVIGTILLISYGIRRLIKKSPSDVKPLPSPDTDVPLSSVEIENPETSDQ
[3]
  Hydrolysis of [125I]-glycophorin A forms by P. haemolytica A1 pH 4.5 fraction: total hydrolysis

B4: CD45/leucocyte common antigen: O-sialoglycoprotein cell surface antigen, leukocyte common antigen (protein)
chain: QSPTPSPTGLTTAKMPSVPLSSDPLPTHTTAFSPASTFERENDFSETTTSLSPDNTSTQVSPDSLDNASAFNTTGVSSVQTPHLPTHADSQTPSAGTDTQTFSGSAANAKLNPTPGSNAISDVPGERSTASTFPTDPVSPLTTTLSLAHHSSAALPARTSNTTITANTSDAYLNASETTTLSPSGSAVISTTTIATTPSKPTCDEKYANITVDYLYNKETKLFTAKLNVNENVECGNNTCTNNEVHNLTECKNASVSISHNSCTAPDKTLILDVPPGVEKFQLHDCTQVEKADTTICLKWKNIETFTCDTQNITYRFQCGNMIFDNKEIKLENLEPEHEYKCDSEILYNNHKFTNASKIIKTDFGSPGEPQIIFCRSEAAHQGVITWNPPQRSFHNFTLCYIKETEKDCLNLDKNLIKYDLQNLKPYTKYVLSLHAYIIAKVQRNGSAAMCHFTTKSAPPSQVWNMTVSMTSDNSMHVKCRPPRDRNGPHERYHLEVEAGNTLVRNESHKNCDFRVKDLQYSTDYTFKAYFHNGDYPGEPFILHHSTSYNSKALIAFLAFLIIVTSIALLVVLYKIYDLHKKRSCNLDEQQELVERDDEKQLMNVEPIHADILLETYKRKIADEGRLFLAEFQSIPRVFSKFPIKEARKPFNQNKNRYVDILPYDYNRVELSEINGDAGSNYINASYIDGFKEPRKYIAAQGPRDETVDDFWRMIWEQKATVIVMVTRCEEGNRNKCAEYWPSMEEGTRAFGDVVVKINQHKRCPDYIIQKLNIVNKKEKATGREVTHIQFTSWPDHGVPEDPHLLLKLRRRVNAFSNFFSGPIVVHCSAGVGRTGTYIGIDAMLEGLEAENKVDVYGYVVKLRRQRCLMVQVEAQYILIHQALVEYNQFGETEVNLSELHPYLHNMKKRDPPSEPSPLEAEFQRLPSYRSWRTQHIGNQEENKSKNRNSNVIPYDYNRVPLKHELEMSKESEHDSDESSDDDSDSEEPSKYINASFIMSYWKPEVMIAAQGPLKETIGDFWQMIFQRKVKVIVMLTELKHGDQEICAQYWGEGKQTYGDIEVDLKDTDKSSTYTLRVFELRHSKRKDSRTVYQYQYTNWSVEQLPAEPKELISMIQVVKQKLPQKNSSEGNKHHKSTPLLIHCRDGSQQTGIFCALLNLLESAETEEVVDIFQVVKALRKARPGMVSTFEQYQFLYDVIASTYPAQNGQVKKNNHQEDKIEFDNEVDKVKQDANCVNPLGAPEKLPEAKEQAEGSEPTSGTEGPEHSVNGPASPALNQGS
modifications: O-sialoglycosylated
[1]
  Cleavage of cell surface antigen by the glycoprotease: cleaved
